# T1: mouse CLEC14A-ECD-Fc (murine CLEC14A-ECD fused to a human Fc tag) (mouse; human, UniProt Q8VCP9 22-386)
# T1 construct: extracellular domain; not shown: human Fc tag
# T1 sequence (looked up): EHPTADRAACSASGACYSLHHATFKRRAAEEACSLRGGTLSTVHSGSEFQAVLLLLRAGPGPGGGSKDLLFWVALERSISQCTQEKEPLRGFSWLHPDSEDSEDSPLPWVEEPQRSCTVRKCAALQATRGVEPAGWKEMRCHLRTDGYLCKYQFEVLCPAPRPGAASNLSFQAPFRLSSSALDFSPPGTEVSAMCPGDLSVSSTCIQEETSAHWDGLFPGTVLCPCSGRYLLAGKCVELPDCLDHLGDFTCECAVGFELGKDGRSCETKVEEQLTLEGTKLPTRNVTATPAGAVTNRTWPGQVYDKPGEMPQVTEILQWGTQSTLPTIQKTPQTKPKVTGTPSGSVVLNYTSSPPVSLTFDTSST
# T2: CLEC14A-ECD-Fc (human CLEC14A extracellular domain fused to an Fc tag) (human, UniProt Q86T13 22-396)
# T2 construct: Expressed in HEK293T cells; also called hCLEC14A-ECD-Fc; C14A-Fc; not shown: human IgG Fc tag
# T2 sequence: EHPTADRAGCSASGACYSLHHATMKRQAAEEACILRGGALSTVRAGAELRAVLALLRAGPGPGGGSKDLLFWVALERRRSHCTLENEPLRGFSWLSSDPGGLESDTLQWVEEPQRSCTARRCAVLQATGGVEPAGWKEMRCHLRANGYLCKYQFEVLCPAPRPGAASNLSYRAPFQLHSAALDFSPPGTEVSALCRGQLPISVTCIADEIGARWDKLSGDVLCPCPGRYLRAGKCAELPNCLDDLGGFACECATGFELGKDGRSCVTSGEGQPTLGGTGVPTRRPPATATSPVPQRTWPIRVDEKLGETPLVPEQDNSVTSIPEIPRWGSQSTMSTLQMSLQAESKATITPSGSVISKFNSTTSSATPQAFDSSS
# T3: MMRN2^FL (full-length human MMRN2 with a polyhistidine (His) tag) (human, UniProt Q9H8L6 23-949)
# T3 construct: mature; Used as lysate of transfected HEK293T cells; Forms large multimers under non-reduced conditions; also called MMRN2 full-length; MMRN2 FL with His tag; not shown: C-terminal BirA and His tags of vector pHL-Avitag3
# T3 sequence (looked up): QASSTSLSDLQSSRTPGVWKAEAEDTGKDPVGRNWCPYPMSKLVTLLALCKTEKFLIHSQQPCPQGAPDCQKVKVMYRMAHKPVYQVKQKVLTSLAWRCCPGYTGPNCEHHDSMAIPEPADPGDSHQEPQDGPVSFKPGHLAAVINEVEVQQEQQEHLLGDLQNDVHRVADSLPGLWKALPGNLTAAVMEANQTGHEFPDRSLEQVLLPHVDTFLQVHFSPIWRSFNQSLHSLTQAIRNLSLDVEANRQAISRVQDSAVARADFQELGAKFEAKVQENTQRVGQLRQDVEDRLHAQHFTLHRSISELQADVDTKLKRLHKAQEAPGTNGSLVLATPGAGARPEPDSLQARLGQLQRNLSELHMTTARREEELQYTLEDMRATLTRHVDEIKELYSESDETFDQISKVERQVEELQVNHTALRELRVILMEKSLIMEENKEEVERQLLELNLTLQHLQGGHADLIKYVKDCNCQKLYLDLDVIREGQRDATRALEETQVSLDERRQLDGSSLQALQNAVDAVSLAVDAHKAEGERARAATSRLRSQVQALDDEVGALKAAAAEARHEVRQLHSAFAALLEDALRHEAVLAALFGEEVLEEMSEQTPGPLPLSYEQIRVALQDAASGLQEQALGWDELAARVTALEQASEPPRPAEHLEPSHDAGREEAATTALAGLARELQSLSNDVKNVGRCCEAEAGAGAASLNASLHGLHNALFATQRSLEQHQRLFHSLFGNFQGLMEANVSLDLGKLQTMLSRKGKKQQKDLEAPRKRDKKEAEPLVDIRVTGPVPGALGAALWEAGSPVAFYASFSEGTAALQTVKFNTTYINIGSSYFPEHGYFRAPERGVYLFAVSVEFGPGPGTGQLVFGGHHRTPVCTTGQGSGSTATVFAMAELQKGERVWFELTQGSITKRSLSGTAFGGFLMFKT
# Key:
# [1] = molecular target: T1, mouse CLEC14A-ECD-Fc (murine …); test: far western blot, reduced and non-reduced
# [2] = molecular target: T2, CLEC14A-ECD-Fc (human CLEC14A …); test: far western blot; HEK293T lysates probed with CLEC14A-ECD-Fc
# Source text: FIG. 2. […] (A) Diagrams of MMRN2 truncation mutants, showing the elastin microfibril interface (EMI) domain, coiled-coil (CC) domain and complement related C1q domain. The minimal CLEC14A binding fragment is highlighted in black. (B,C) HEK293T were transfected with truncation mutants. Lysates were far western blotted under reduced conditions with CLEC14A extracellular domain fused to an Fc tag (CLEC14A-ECD-Fc) and western blotted by use of His tag antibodies. (B) The smallest binding fragment was identified as MMRN2⁴⁸⁷⁻⁸²⁰, MMRN2^FL fails to bind CLEC14A-ECD-Fc. (C) The smallest MMRN2 fragment binding CLEC14A is MMRN2⁵³⁰⁻⁶²⁴. (D) MMRN2⁴⁹⁵⁻⁶⁷⁴ and MMRN2⁴⁹⁵⁻⁶⁰³ bind to streptavidin under reducing conditions after biotinylation. (E) Flow cytometry histograms of HEK293T transfected with GFP tagged CTLD group 14 family members and stained with biotinylated MMRN2⁴⁹⁵⁻⁶⁷⁴ (grey line), confirming binding to CLEC14A and CD93 but not thrombomodulin. Streptavidin-PE was used as a control for background binding (grey shaded).
# (§1) Whole cell protein lysates were made by incubating with lysis buffer (1% (v/v) NP40, 10 mM Tris pH7.5, 150 mM NaCl and 1 mM EDTA) and pelleting insoluble material. […] The epitope tag of each probed protein was detected with secondary antibody incubation (anti-His or anti-Fc HRP conjugate) and then tertiary anti-mouse HRP for the case of anti-His.
# [3] = molecular target: T3, MMRN2^FL (full-length human MMRN2 with …); test: far western blot, non-reduced; HEK293T lysates of GFP-tagged proteins probed with MMRN2^FL-His lysate, anti-His detection
# Source text: We previously identified MMRN2 as a binding partner of CLEC14A, one of the members of the C-type lectin domain (CTLD) group 14 family (4). To test whether any of the other CTLD group 14 family members also bind to MMRN2, we employed far western blotting using MMRN2 protein probe as a surrogate for a primary antibody in a standard western blot set up. The CTLD group 14 family members CLEC14A, CD93 and thrombomodulin were all constructed with a C-terminal green fluorescent protein (GFP) tag (FIG. 1A). Constructs were transfected into HEK293T cells and lysates were separated by SDS-PAGE under non-reducing conditions to keep disulphide bonds intact, then transferred to PVDF membranes and blotted using HEK293T lysates overexpressing full-length human MMRN2 with a polyhistidine (His) tag. MMRN2 protein binding was detected by staining with an anti-His tag antibody.
# as §1, with “material. Standard protocols for western blotting were used.” for “material.”
# [4] = molecular target: T1, mouse CLEC14A-ECD-Fc (murine …); test: far western blot; HEK293T lysate probed with mouse CLEC14A-ECD-Fc
binder,measurement,setting,value
"MMRN2^495-674 (human, expressed in HEK293T, His tag) (ligand, not shown: C-terminal BirA and His tags of vector pHL-Avitag3) QKLYLDLDVIREGQRDATRALEETQVSLDERRQLDGSSLQALQNAVDAVSLAVDAHKAEGERARAATSRLRSQVQALDDEVGALKAAAAEARHEVRQLHSAFAALLEDALRHEAVLAALFGEEVLEEMSEQTPGPLPLSYEQIRVALQDAASGLQEQALGWDELAARVTALEQASEPPRP",binding result,[1],binds
same,binding result,[2],binds
"CLEC14A (human, wild type, C-terminal GFP tag, expressed in HEK293T) (receptor, On cells in flow cytometry; as non-reduced HEK293T lysate in far western blots; also called CLEC14A wt; cell surface expressed CLEC14A; not shown: C-terminal green fluorescent protein (GFP) tag from vector pEGFP-N1) EHPTADRAGCSASGACYSLHHATMKRQAAEEACILRGGALSTVRAGAELRAVLALLRAGPGPGGGSKDLLFWVALERRRSHCTLENEPLRGFSWLSSDPGGLESDTLQWVEEPQRSCTARRCAVLQATGGVEPAGWKEMRCHLRANGYLCKYQFEVLCPAPRPGAASNLSYRAPFQLHSAALDFSPPGTEVSALCRGQLPISVTCIADEIGARWDKLSGDVLCPCPGRYLRAGKCAELPNCLDDLGGFACECATGFELGKDGRSCVTSGEGQPTLGGTGVPTRRPPATATSPVPQRTWPIRVDEKLGETPLVPEQDNSVTSIPEIPRWGSQSTMSTLQMSLQAESKATITPSGSVISKFNSTTSSATPQAFDSSSAVVFIFVSTAVVVLVILTMTVLGLVKLCFHESPSSQPRKESMGPPGLESDPEPAALGSSSAHCTNNGVKVGDCDLRDRAEGALLAESPLGSSDA",binding result,[3],binds
"mouse MMRN2^495-678 (expressed in HEK293T, His tag) (ligand, not shown: C-terminal BirA and His tags of vector pHL-Avitag3) QRVNSDVDVAPEGHRDVMHTLEETQVSLDEQHQLDGSSLQALQSTVDAMSSAMDAYRGEGERARAERARIRSQLRALDHAVEALKTAANGTRKEIRLLHGSFTALLEDALRHQAVLAALFGEEMIDEMSEEAPRPLPLDYEQIRLALQDAASGLQEQAIGWEDLATRVEALEKAAGGFVEQHPQ",binding result,[4],binds
"CD93 (human, wild type, C-terminal GFP tag, expressed in HEK293T) (receptor, On cells in flow cytometry; as non-reduced HEK293T lysate in far western blots; also called CD93 wild type (wt); cell surface expressed CD93; not shown: C-terminal green fluorescent protein (GFP) tag from vector pEGFP-N1) TGADTEAVVCVGTACYTAHSGKLSAAEAQNHCNQNGGNLATVKSKEEAQHVQRVLAQLLRREAALTARMSKFWIGLQREKGKCLDPSLPLKGFSWVGGGEDTPYSNWHKELRNSCISKRCVSLLLDLSQPLLPSRLPKWSEGPCGSPGSPGSNIEGFVCKFSFKGMCRPLALGGPGQVTYTTPFQTTSSSLEAVPFASAANVACGEGDKDETQSHYFLCKEKAPDVFDWGSSGPLCVSPKYGCNFNNGGCHQDCFEGGDGSFLCGCRPGFRLLDDLVTCASRNPCSSSPCRGGATCVLGPHGKNYTCRCPQGYQLDSSQLDCVDVDECQDSPCAQECVNTPGGFRCECWVGYEPGGPGEGACQDVDECALGRSPCAQGCTNTDGSFHCSCEEGYVLAGEDGTQCQDVDECVGPGGPLCDSLCFNTQGSFHCGCLPGWVLAPNGVSCTMGPVSLGPPSGPPDEEDKGEKEGSTVPRAATASPTRGPEGTPKATPTTSRPSLSSDAPITSAPLKMLAPSGSPGVWREPSIHHATAASGPQEPAGGDSSVATQNNDGTDGQKLLLFYILGTVVAILLLLALALGLLVYRKRRAKREEKKEKKPQNAADSYSWVPERAESRAMENQYSPTPGTDC",binding result,[3],binds

# From US20190185532A1 (UNIVERSITY OF BIRMINGHAM, published 2019)
